# T1: human Ang-2 H375Q (human, UniProt O15123 19-496)
# T1 sequence: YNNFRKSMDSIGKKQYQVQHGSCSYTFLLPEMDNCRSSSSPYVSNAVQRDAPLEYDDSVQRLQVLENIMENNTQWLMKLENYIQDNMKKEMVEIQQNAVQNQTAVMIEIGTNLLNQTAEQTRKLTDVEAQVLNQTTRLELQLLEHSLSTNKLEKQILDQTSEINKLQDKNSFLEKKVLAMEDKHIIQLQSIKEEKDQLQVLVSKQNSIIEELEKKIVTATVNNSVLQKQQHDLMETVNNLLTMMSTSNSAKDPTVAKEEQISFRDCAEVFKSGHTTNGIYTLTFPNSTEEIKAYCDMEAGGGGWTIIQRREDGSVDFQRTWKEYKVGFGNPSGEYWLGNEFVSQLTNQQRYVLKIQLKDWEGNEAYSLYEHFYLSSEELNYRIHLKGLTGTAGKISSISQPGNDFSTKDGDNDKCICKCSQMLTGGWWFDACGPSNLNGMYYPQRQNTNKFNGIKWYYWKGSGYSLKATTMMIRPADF
# T2: Mouse/Human chimeric Ang-2 with the human StuI-TfiI fragment (mouse/human chimera, UniProt O35608 19-496)
# T2 construct: also called Stu-Tfil 310-400
# T2 chain: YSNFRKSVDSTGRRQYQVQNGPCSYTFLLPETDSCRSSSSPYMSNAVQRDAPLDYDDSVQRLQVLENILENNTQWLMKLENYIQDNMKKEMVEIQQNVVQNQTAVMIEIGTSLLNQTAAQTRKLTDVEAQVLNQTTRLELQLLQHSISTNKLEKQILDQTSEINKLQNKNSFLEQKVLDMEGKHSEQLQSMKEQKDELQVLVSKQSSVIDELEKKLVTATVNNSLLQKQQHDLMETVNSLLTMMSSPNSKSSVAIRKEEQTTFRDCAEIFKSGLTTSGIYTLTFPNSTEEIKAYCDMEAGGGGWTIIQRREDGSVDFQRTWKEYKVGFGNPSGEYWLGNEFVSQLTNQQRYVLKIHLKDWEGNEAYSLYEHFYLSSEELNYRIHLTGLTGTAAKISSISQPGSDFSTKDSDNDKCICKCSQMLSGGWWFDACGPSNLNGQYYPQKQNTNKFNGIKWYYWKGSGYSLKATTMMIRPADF
# T3: human Angiopoietin-2 (human, UniProt O15123 19-496)
# T3 construct: Mostly bought recombinant protein (R&D Systems 623-AM/CF, 623-AN; biotinylated BT623) or supernatant of transfected 293F cells; also called Ang-2; rhAng-2
# T3 sequence: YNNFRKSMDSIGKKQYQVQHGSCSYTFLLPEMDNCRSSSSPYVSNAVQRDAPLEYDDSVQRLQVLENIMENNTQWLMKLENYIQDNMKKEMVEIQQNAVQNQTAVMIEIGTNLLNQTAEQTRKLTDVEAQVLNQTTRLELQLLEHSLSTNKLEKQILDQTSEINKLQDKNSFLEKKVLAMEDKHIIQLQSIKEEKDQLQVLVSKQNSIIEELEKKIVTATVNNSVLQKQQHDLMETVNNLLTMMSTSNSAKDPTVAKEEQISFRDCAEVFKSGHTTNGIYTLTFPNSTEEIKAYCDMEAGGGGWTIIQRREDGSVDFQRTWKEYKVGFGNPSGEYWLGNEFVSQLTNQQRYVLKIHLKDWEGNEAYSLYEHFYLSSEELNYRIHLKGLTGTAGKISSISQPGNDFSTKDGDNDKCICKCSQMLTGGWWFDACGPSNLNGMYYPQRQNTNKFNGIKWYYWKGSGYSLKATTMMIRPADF
# T4: mouse Angiopoietin-2 (mouse, UniProt O35608 19-496)
# T4 construct: Used as conditioned medium of transfectants; also called mAng-2; mouse Ang-2
# T4 sequence: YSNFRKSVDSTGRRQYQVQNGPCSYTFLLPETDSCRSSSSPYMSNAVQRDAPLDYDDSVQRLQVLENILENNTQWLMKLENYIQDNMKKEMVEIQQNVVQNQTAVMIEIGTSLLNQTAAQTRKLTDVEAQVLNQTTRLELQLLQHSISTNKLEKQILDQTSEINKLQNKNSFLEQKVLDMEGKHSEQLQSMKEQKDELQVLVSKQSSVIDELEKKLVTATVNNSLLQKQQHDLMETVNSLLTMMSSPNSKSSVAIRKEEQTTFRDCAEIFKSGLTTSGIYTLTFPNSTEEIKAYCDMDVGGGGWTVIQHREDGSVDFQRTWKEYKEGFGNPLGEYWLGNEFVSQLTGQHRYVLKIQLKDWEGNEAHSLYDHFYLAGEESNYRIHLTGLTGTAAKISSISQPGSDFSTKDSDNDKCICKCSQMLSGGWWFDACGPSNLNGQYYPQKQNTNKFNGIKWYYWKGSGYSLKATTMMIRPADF
# Columns and labels:
# [1] = biological target: T1, human Ang-2 H375Q; assay: ELISA
# [2] = biological target: T2, Mouse/Human chimeric Ang-2 with the …; assay: ELISA
# [3] = biological target: T3, human Angiopoietin-2; assay: inhibition of rhAng-2 binding to its receptor
# [4] = biological target: T3, human Angiopoietin-2; assay: Biacore, mAb captured
# Protocol: (§1) The label-free surface plasmon resonance (SPR), or Biacore, was utilized to measure the antibody affinity to the antigen. For this purpose, a high-density goat anti-human antibody surface over a CM5 Biacore chip was prepared using routine amine coupling. All the purified mAbs were diluted to approximately 8 μg/ml in HBS-P running buffer containing 100 μg/ml BSA and 10 mg/mL carboxymethyldextran. Each mAb was captured on a separate surface using a 42-second contact time, and a 5-minute wash for stabilization of the mAb baseline.
# (§2) Data were fit globally to a 1:1 interaction model to determine the binding kinetics.
# [5] = biological target: T3, human Angiopoietin-2; assay: Biacore; kd held constant (*)
# Protocol: as §1, §2
# [6] = biological target: T4, mouse Angiopoietin-2; assay: ELISA, recombinant mouse Ang-2
Binder,% of binding to human Ang-2 [1] [%],% of binding to human Ang-2 [2] [%],OD650 in inhibition assay [3] [OD650],Kd [4] [nM],kon [4] [M⁻¹ s⁻¹],koff [5] [s⁻¹],binding result [6],koff [4] [s⁻¹]
"mAb 5.83.1 (antibody, V domains shown, Human hybridoma IgG (XenoMouse); also called x5.83) VH: not shown VL: EIVMTQSPATLSVSPGERATLSCRASQSLISNLAWYQQKPGQAPRLLIFGASTRATGIPARFSGSGSGTEFTLTISSLQSEDFAVYYCHQYNNWWTFGQGTKVEIKR",100,86,0.0484,≤ 0.147,68000,≤ 1e-05,no binding,
"mAb 3.31.2 (antibody, V domains shown, Human hybridoma IgG (XenoMouse); also called x3.31) VH: EVQLVESGGGLVQPGGSLRLSCAASGFTFSSYWMSWVRQAPGKGLEWVANIKQDGSDKYYVDSVKGRFTISRDNAKNSLYLRMNSLRAEDTAVFYCARDMGSGWFDYWGQGTLVTVSS VL: EVVMTQSPATLSVSPGERATLSCRASQSVGSNLAWYQQKPGQAPRLLIYGASTRATGIPARFSGSGSGTEFTLTISSLQSEDFAVYCCQQYNHWWTFGQGTKVEIKR",100,,0.0516,≤ 0.051,190000,≤ 1e-05,,
"mAb 5.88.3 (antibody, V domains shown, Human hybridoma IgG (XenoMouse); also called x5.88) VH: EVQMVESGGGLVQPGGSLRLSCAASGFTLRSYWMSWVRQAPGKGLEWVANIKEDGSEKYHVDSVKGRFTISRDNAENSLFLQMSSLRAEDTAVYYCARDMEASAGLFDYWGQGTLVTVSS VL: EIVMTQSPATLSVSPGERAILSCRASQSISSNLAWYQQKPGQAPRLLIYGASTRATGIPARFSGSGSGTEFTLTISSLQSEDFAVYYCQQYNYWWTFGQGTKVEIKR",100,20,0.0874,≤ 0.037,270000,≤ 1e-05,no binding,
"mAb 5.54.1 (antibody, V domains shown, Human hybridoma IgG (XenoMouse); also called x5.54) VH: not shown VL: EIVMTQSPATLSVSPGERATLSCRASQSLISNLAWYQQKPGQAPRLLIFGASTRATGIPARFSGSGSGTEFTLTISSLQSEDFAIYYCHQYNNWWTFGQGTKVEIKR",100,77,0.044,≤ 0.066,150000,≤ 1e-05,no binding,
"mAb 5.101.1 (antibody, V domains shown, Human hybridoma IgG (XenoMouse); also called x5.101) VH: not shown VL: EIVMTQSPATLSVSPGERATLSCRASQSLISNLAWYQQKPGQAPRLLIFGASTRATGIPARFSGSGSGTEFTLTISSLQSEDFAVYYCHQYNNWWTFGQGTKVEIKR",100,28,0.0824,0.581,150000,,no binding,8.7e-05
"mAb 5.86.1 (antibody, V domains shown, Human hybridoma IgG (XenoMouse); also called x5.86) VH: QVQLVQSGAEVKKPGASVKVSCKASGYTFTGYHMYWVRQAPGQGLEWLGWINPNSGGTNYAQKFQGRVTMTRDTSISTAYMELSRLRSDDTAVYYCVRDQGIAAAGPFDYWCQGTLVTVSS VL: DIRMTQSPSSLSASVGDRVTITCRASQRISTYLNWYQQKPGKAPKFLIYAASSLQSGVPSRFSGSGSGTDFTLTISSLQPEDFATYYCQQSYTTPFTFGPGTKVDIKR",100,23,0.0419,0.744,150000,,no binding,0.00011
"mAb 5.103.1 (antibody, V domains shown, Human hybridoma IgG (XenoMouse); also called 5.103.3; x5.103) VH: QVQLVQSGAEVKKPGASVKVSCKASGYTFTGYYLYWVPQAPGQGLEWMGWISPNSGGTNYAQKFQGRVTMTRDTSISTAYMELSRLRSDDTAVYYCARDQVIAVAGPFDYWAQGTLVTVSS VL: not shown",100,,0.101,≤ 0.045,220000,≤ 1e-05,no binding,
"mAb 5.52.1 (antibody, V domains shown, Human hybridoma IgG (XenoMouse); the line 5.52 has entries of its own (347, 349; light chain L2) that differ from the clone 5.52.1 (L5); also called x5.52) VH: QVQLVESGGGVVQPGRSLRLSCAASGFTFSSYGMHWVRQAPGKGLEWVAVRWYDESNKYYADSVKGRFTISRDNSKNTLYLQMNSLRAEDTAVYYCARDPFETGTTFDYWGQGTLVTVSS VL: DIQMTQSPSSVSASVGDRVTITCRASQGISSWLAWYQQKPGKAPKLLIYAVSSLESGVPSRFSGSGSGTDFTLTISSLQPEDFATYYCQQALTFGGGTKVEIKR",100,100,0.0627,≤ 0.75,13000,,,
"mAb 5.28.1 (antibody, V domains shown, Human hybridoma IgG (XenoMouse); also called x5.28) VH: EVQLVESGGIVVQPGGSLRLSCAASGFTFDDYTMHWVRQTPGKGLEWVSLISWDGGSTYYADSVKGRFTISRDNSKNSLYLQMNSLRTEDTALYYCAKDIDIAVAGTGFDHWGQGTLVTVSS VL: EIVMTQSPATLSVSPGERATLSCRASQSVTSNLAWYQQKPGQAPRLLIYGALIRATGIPARFSGSGSGTEFTLTISSLQSEDFAVYYCQQYNNWPFTFGPGTKVDIKR",100,100,0.0821,≤ 0.04,250000,≤ 1e-05,,
"mAb 5.56.1 (antibody, V domains shown, Human hybridoma IgG (XenoMouse); also called x5.56) VH: QVQLVESGGGVVQPGRSLRLSCAASGFTFSSYGMHWVRQAPGKGLEWVAVIWYDGSNKYYADSVKGRFTISRDNSKNTLYLQMNSLRAEDTAVYYCAREDNWNFYFDYWGQGTLVTVSS VL: DIQMTQSPSSLSASVGDRVTITCRASQGISYYLAWYQQKPGKVPKLLIYAASTLQSGVPSRFSGSGSGTDFTLTISSLQPEDVATYYCQKYNSAPFTFGPGTKVDIKR",100,100,0.0863,≤ 0.052,190000,≤ 1e-05,,
"mAb 3.19.3 (antibody, V domains shown, Human hybridoma IgG (XenoMouse); also called x3.19) VH: QVQLVESGGGVVQPGRSLRLSCAASGFTFTNYGMHWGRQAPGKGLEWVAVISHDGNNKYYVDSVKGRFTISRDNSKNTLYLQMNSLRAEDTAVYYCAREGIDFWSGLNWFDPWGQGTLVTVSS VL: EIVLTQSPGTLSLSPGERATLSCRASQSITGSYLAWYQQKPGQAPRLLICGASSWATGIPDRFSGSGSGTDFTLTISRLEPEDFAVYYCQQYSSSPITFGQGTRLEIKR",100,100,0.0633,≤ 0.111,90000,≤ 1e-05,,
